Experimental data as given in PMC2653429.

Target: GST-Dpn bHLH (UniProt Q26263 1-108)
Assay: EMSA

Chain of GST-Dpn bHLH (Q26263 1-108): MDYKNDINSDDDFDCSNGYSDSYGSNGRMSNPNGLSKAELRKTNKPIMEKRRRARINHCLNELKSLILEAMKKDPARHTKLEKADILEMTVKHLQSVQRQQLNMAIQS

B1: 4Cm (dsDNA)
DNA 1: GATCTTGCCAAGCTCCACGATC
DNA 2: GATCGTGGAGCTTGGCAAGATC
B1: no binding.

B2: (1+2)m (dsDNA)
DNA 1: GATCTTAGGTAGCCCCCGGGACTGGCACAGGCACCTTGATC
DNA 2: GATCAAGGTGCCTGTGCCAGTCCCGGGGGCTACCTAAGATC
B2: no binding.

B3: 3Cm (dsDNA)
DNA 1: GATCCCTGGCACCCTTCCTGATC
DNA 2: GATCAGGAAGGGTGCCAGGGATC
B3: no binding.
